According to US12460006B2, “Antibodies against integrin alpha 11 beta 1” (Momenta Pharmaceuticals, Inc., priority 2019, dated 2025):

B1: 6C7: rabbit anti-α11β1 mAb; heavy chain SEQ ID NO: 185, light chain SEQ ID NO: 186 (antibody)
heavy: METGLRWLLLVAVLKGVQCQQQLEESGGGLVKPGGTLTLTCKASGIDFSSYYYMCWVRQAPGKGLELIVCIYTSSGGTWYASWVNGRLTISRSTSLNTVDLKMTSLTAADTATYFCARGVYSGSSDYPTRLDLWGQGTLVTVSLGQPKAPSVFPLAPCCGDTPSSTVTLGCLVKGYLPEPVTVTWNSGTLTNGVRTFPSVRQSSGLYSLSSVVSVTSSSQPVTCNVAHPATNTKVDKTVAPSTCSKPMCPPPELPGGPSVFIFPPKPKDTLMISRTPEVTCVVVDVSQDDPEVQFTWYINNEQVRTARPPLREQQFNSTIRVVSTLPIAHQDWLRGKEFKCKVHNKALPAPIEKTISKARGQPLEPKVYTMGPPREELSSRSVSLTCMINGFYPSDISVEWEKNGKAEDNYKTTPTVLDSDGSYFLYSKLSVPTSEWQRGDVFTCSVMHEALHNHYTQKSISRSPGK
light: MDTSTSTALLGLLLLWLTGARCAIEMTQSPPSLSASVGETVRIRCLASEDIYSGISWYQQKPEKPPTLLISGASNLESGVPPRFSGGGSGTDYTLTIGGVQAEDVATYYCLGGYSFSSTGLTFGAGTKVEIKRDPVAPSVLLFPPSKEELTTGTATIVCVANKYFPDVTVTWEVDGTTQTTGIENSKTPQNSADCTYNLSSTLTLTSTQYNSHKEYTCKVTQGTTSVVQSFNRGDC
B2: 5D7: rabbit anti-α11β1 mAb; heavy chain SEQ ID NO: 191, light chain SEQ ID NO: 192 (antibody)
heavy: METGLRWLLLVAVLKGVQCQEQLVESGGGLVQPEGSLTLTCKASGFDFSSNAMCWVRQAPGKGLEWIACIYNGDGSTYYASWVNGRFTISKTSSTTVTLQMTSLTAADTATYFCARGLSNWNRDNLWGPGTLVTVSSGQPKAPSVFPLAPCCGDTPSSTVTLGCLVKGYLPEPVTVTWNSGTLTNGVRTFPSVRQSSGLYSLSSVVSVTSSSQPVTCNVAHPATNTKVDKTVAPSTCSKPMCPPPELPGGPSVFIFPPKPKDTLMISRTPEVTCVVVDVSQDDPEVQFTWYINNEQVRTARPPLREQQFNSTIRVVSTLPIAHQDWLRGKEFKCKVHNKALPAPIEKTISKARGQPLEPKVYTMGPPREELSSRSVSLTCMINGFYPSDISVEWEKNGKAEDNYKTTPTVLDSDGSYFLYSKLSVPTSEWQRGDVFTCSVMHEALHNHYTQKSISRSPGK
light: MDTRAPTQLLGLLLLWLPGATFAQVLTQTPSSVSAAVGGTATINCQASQSLYSPKNLAWYQQTPGQPPKLLIYSASKLASGVPSRFKGSGSGTQFTLTISGVQCDDAAIYYCQGEFSCTTAACFAFGGGTEVVVKGDPVAPTVLIFPPAADQVATGTVTIVCVANKYFPDVTVTWEVDGTTQTTGIENSKTPQNSADCTYNLSSTLTLTSTQYNSHKEYTCKVTQGTTSVVQSFNRGDC

What was measured:
[1] = target: human α11β1 (Homo sapiens, UniProt Q9UKX5); assay: ELISA binding to recombinant human α11β1; conditions: binding Yes/No
In short: (§1)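 Direct ELISA against human or mouse α11β1 coated at 0.25 μg/mL; antibody titration 1 h at room temperature, HRP-based colorimetric read-out at 450 nm.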

[2] = tested on: myofibroblasts (MF); assay: FACS antibody binding to myofibroblasts; set-up: species or system human; conditions: binding Yes/No
In short: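 Human pulmonary fibroblasts, serum-starved 24 h then TGFβ-1-treated 72 h to give myofibroblasts, were blocked with heat-inactivated FBS and stained with anti-α11 antibodies, then PE secondary, 30 min each at 4 °C, before 1% PFA fixation. Binding read by flow cytometry as PE geometric MFI of single cells.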

[3] = target: mouse α11β1 (Mus musculus, UniProt P61622); assay: ELISA binding to recombinant mouse α11β1; conditions: binding Yes/No
In short: as §1

[4] = tested on: CHO-K1 cells expressing human α11; assay: Cell adhesion inhibition (xCelligence), type I collagen; type: cell-based; conditions: Yes/No
In short: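 CHO-K1 cells expressing human α11 (0.6×10^6 cells/mL) were preincubated with mAbs across a concentration range for 20 min at 37° C, then seeded on wells coated with 100 ng/mL type I collagen and blocked with 3% BSA. Impedance-based adhesion was recorded over 6 h, and maximum adhesion was compared with untreated control.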

[5] = tested on: Human Pulmonary Fibroblasts; assay: Fibroblast-to-Myofibroblasts Transition (FMT), αSMA expression; type: cell-based; conditions: Yes/No
In short: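 Cells seeded at 20,000/well, serum-starved 24 h, then given TGFβ-1 with or without anti-α11 antibodies for 48 h; polyclonal anti-α11 and isotype IgG served as controls. Fixed, permeabilized cells were stained for αSMA and analysed by flow cytometry (single-cell gMFI). Values are normalized to untreated control as % inhibition.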

[6] = target: T1, I domain of α11β1 (Homo sapiens, UniProt Q9UKX5); assay: ELISA binding to in-house generated I domain of α11β1; conditions: Yes/No
T1 construct: An in-house generated I domain of α11β1 was used; made in house
T1 sequence (Q9UKX5 164-345 limits assumed): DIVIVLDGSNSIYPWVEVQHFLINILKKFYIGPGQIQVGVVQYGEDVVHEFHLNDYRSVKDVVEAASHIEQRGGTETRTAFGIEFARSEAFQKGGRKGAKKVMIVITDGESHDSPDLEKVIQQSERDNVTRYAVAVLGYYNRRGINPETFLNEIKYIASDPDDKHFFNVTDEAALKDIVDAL
In short: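 Plate-coated antigen (0.25 μg/mL, overnight 4° C) probed with antibody dilution series 1 h at room temperature, then biotinylated anti-IgG and streptavidin-HRP, 1 h each. TMB substrate 5 min, stopped, absorbance at 450 nm; in-house I domain of α11β1 used as target.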

human α11β1, sequence (Q9UKX5 23-1141 limits assumed): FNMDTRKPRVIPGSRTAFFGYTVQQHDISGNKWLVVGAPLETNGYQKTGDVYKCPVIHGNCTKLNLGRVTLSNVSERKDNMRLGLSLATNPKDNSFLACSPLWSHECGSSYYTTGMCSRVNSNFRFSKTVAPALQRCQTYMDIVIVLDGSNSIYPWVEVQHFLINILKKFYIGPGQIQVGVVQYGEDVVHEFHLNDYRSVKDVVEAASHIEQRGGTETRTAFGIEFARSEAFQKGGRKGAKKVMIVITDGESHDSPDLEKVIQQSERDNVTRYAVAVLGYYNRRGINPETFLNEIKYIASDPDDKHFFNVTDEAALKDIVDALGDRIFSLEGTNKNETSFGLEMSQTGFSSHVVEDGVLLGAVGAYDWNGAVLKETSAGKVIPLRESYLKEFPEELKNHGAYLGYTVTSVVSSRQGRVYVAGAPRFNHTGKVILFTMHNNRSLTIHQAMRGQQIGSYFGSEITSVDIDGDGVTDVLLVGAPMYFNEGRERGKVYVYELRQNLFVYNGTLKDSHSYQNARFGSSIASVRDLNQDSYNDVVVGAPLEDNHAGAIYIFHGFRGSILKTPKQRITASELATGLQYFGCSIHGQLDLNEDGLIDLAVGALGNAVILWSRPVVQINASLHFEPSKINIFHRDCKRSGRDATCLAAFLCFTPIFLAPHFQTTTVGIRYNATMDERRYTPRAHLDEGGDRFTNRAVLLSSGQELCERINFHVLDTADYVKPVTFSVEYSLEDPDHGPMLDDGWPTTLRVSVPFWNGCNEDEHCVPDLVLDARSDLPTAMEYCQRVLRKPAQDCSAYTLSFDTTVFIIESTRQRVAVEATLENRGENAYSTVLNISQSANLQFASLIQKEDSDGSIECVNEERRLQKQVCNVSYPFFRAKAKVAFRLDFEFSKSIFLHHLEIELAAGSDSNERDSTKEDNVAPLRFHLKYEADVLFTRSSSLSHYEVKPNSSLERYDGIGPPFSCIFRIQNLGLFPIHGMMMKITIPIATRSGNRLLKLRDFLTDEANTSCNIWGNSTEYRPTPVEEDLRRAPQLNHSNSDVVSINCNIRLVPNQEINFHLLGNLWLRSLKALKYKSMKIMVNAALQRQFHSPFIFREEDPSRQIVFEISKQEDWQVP
human α11β1, sequence (P05556 21-728 partner limits assumed): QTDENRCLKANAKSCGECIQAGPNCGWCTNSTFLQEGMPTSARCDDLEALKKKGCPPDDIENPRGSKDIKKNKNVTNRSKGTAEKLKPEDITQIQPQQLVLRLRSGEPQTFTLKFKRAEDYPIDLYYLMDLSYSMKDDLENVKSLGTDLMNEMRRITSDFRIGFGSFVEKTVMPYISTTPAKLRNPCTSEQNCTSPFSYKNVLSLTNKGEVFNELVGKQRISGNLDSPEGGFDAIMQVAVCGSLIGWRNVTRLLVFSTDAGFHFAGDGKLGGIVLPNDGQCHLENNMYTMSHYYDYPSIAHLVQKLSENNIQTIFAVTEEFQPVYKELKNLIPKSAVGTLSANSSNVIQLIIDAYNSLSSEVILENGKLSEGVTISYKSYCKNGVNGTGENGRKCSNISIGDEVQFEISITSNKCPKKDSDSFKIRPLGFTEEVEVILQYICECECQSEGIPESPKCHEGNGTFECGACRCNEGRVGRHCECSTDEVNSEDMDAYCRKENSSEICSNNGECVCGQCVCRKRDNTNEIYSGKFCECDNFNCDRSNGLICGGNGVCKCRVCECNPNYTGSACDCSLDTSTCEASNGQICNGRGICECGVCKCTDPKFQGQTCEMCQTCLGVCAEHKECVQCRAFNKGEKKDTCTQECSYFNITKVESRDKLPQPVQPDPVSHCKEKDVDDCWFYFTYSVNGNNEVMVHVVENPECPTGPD
mouse α11β1, sequence (P61622 23-1141 limits assumed): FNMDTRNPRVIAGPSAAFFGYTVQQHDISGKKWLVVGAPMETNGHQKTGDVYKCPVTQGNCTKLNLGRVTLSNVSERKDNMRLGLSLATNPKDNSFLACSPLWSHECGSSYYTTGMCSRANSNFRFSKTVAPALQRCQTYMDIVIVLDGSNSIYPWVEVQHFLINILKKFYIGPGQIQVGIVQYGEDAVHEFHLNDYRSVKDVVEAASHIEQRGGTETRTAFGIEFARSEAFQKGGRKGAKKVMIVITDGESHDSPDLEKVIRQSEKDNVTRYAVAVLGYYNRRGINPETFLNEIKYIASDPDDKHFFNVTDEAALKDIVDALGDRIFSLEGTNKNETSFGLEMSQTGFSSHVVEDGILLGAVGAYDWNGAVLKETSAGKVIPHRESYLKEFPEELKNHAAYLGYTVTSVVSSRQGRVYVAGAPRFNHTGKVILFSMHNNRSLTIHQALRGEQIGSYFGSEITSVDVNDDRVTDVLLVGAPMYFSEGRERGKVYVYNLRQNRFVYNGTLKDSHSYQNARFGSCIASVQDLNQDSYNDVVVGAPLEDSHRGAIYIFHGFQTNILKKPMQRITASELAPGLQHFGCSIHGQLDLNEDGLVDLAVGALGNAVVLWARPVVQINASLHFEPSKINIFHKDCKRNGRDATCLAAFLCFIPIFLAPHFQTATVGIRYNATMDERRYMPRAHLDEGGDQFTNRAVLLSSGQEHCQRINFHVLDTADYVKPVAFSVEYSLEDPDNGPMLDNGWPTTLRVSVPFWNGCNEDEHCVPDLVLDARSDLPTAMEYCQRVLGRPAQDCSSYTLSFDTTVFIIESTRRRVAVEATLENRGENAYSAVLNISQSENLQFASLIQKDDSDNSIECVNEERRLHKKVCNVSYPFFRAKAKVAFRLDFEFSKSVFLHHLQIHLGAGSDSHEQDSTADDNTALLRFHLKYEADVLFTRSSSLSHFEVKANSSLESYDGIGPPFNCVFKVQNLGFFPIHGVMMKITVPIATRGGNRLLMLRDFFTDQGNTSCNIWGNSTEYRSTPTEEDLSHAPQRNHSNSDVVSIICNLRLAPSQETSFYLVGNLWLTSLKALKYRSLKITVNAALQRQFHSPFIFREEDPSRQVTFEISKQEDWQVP
mouse α11β1, sequence (P09055 21-728 partner limits assumed): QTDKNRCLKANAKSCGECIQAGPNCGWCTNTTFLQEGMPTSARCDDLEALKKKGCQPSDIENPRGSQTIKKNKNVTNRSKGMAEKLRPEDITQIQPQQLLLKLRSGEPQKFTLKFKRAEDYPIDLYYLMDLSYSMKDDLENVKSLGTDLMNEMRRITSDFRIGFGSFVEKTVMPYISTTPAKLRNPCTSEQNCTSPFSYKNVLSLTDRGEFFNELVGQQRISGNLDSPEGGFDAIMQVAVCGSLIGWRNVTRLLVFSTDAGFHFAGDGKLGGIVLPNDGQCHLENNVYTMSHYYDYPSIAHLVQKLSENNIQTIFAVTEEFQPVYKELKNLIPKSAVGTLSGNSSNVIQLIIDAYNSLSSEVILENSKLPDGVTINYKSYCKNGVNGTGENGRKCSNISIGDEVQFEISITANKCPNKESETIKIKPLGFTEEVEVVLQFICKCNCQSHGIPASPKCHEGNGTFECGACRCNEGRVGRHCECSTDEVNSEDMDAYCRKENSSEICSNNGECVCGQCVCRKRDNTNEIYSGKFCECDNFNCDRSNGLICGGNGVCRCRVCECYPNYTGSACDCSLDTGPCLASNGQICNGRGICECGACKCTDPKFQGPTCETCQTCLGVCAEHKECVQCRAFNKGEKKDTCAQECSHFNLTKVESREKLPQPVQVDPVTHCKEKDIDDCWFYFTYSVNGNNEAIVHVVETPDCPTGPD

| Molecule | Human α11β1 ELISA [1] | MF FACS [2] | Murine α11β1 ELISA [3] | Inhibition of CHO-K1 adhesion to collagen [4] | Inhibition of FMT [5] | I Domain binding [6] |
| --- | --- | --- | --- | --- | --- | --- |
| B1 | Yes | Yes | No | Yes | No | No |
| B2 | Yes | Yes | No | Yes | No | No |
